# Columns and labels:
# [1] = molecular target: soluble trimeric-RBD form of the SARS-CoV-2 S protein (RBD aa 330-532, Wuhan strain, with a foldon t (SARS-CoV-2 (ancestral Wuhan strain) | T4 (as in 'T4 fibritin')) (UniProt P0DTC2)); assay: Western blot under non-reducing conditions
# [2] = molecular target: soluble trimeric-RBD form of the SARS-CoV-2 S protein (RBD aa 330-532, Wuhan strain, with a foldon t (SARS-CoV-2 (ancestral Wuhan strain) | T4 (as in 'T4 fibritin')) (UniProt P0DTC2)); assay: SEC
substance,measurement,setting,value
"soluble trimeric-RBD form of the SARS-CoV-2 S protein (RBD aa 330-532, Wuhan strain, with a foldon t (from UniProt P0DTC2 330-532) (domain or fragment)",stoichiometry N,[1],3
same,stoichiometry N,[2],3

# Reference: article PMC11313003
